Assays:
[1] = target: T1, HLA-A*0201 molecule expressed on human T2 cells (human); assay: T2 cells (HLA-A*0201), peptide at 10 µM, anti-HLA-A2 flow cytometry
T1 construct: also called HLA-A2
Procedure: (§1) T2 cells (5.104 cells per well) are incubated with decreasing concentrations of peptides from 100 μM to 0.1 μM (4 points: 100 μM, 10 μM, 1 μM, 0.1 μM) in serum-free medium (TexMacs) supplemented with […] of β2 Microglobulin at 37° C. for 16 hours. Cells are then washed two times and marked with the anti-HLA-A2 antibody coupled to PE (clone BB7.2, BD Pharmagen).
(§2) The relative affinity is then determined as follows: […]

[2] = target: T1, HLA-A*0201 molecule expressed on human …; assay: T2 cells (HLA-A*0201), peptide at 100 µM, anti-HLA-A2 flow cytometry
Procedure: as §1, §2

[3] = target: T1, HLA-A*0201 molecule expressed on human …; assay: T2 cells (HLA-A*0201), peptide at 0.1 µM, anti-HLA-A2 flow cytometry
Procedure: as §1, §2

[4] = target: T1, HLA-A*0201 molecule expressed on human …; assay: T2 cells (HLA-A*0201), peptide titration, anti-HLA-A2 flow cytometry
Procedure: as §1, §2

[5] = target: T1, HLA-A*0201 molecule expressed on human …; assay: T2 cells (HLA-A*0201), peptide at 1 µM, anti-HLA-A2 flow cytometry
Procedure: as §1, §2

[6] = target: T1, HLA-A*0201 molecule expressed on human …; assay: T2 cells (HLA-A*0201), anti-HLA-A2 flow cytometry

| Binder | mean relative fluorescence intensity (HIV peptide = 100) [1] | mean relative fluorescence intensity (HIV peptide = 100) [2] | mean relative fluorescence intensity (HIV peptide = 100) [3] | concentration of peptide that induces 20% of HLA-A2 expression [4] [µM] | in vitro binding affinity (relative to HIV pol reference peptide) [4] | mean relative fluorescence intensity (HIV peptide = 100) [5] | binding result [6] |
| --- | --- | --- | --- | --- | --- | --- | --- |
| WVFEHPETL [CD22-H1] | 71 % of HIV pol 589-597 at 100 µM | 158 % of HIV pol 589-597 at 100 µM | 2 % of HIV pol 589-597 at 100 µM | 1.97 | 5.3 ratio to HIV pol 589-597 | 10 % of HIV pol 589-597 at 100 µM | – |
| YLFLGILSL [MS4A1-B5] | 29.8 % of HIV pol 589-597 at 100 µM | – | 0 % of HIV pol 589-597 at 100 µM | 6.77 | 0.7 ratio to HIV pol 589-597 | 0.2 % of HIV pol 589-597 at 100 µM | – |
| YVFEHPELL [CD22-B11] | 124 % of HIV pol 589-597 at 100 µM | 141 % of HIV pol 589-597 at 100 µM | 6.4 % of HIV pol 589-597 at 100 µM | 0.2 | 0.5 ratio to HIV pol 589-597 | 60.5 % of HIV pol 589-597 at 100 µM | – |
| FLAFVPLQL (also called CD37-B1i) [CD37-B1] | 106 % of HIV pol 589-597 at 100 µM | 157 % of HIV pol 589-597 at 100 µM | 5 % of HIV pol 589-597 at 100 µM | 0.65 | 1.6 ratio to HIV pol 589-597 | 35 % of HIV pol 589-597 at 100 µM | – |
| GMAFVPLLL (also called CD37-B11i) [CD37-B11] | 48.9 % of HIV pol 589-597 at 100 µM | 57.8 % of HIV pol 589-597 at 100 µM | 0 % of HIV pol 589-597 at 100 µM | 2.3 | 3 ratio to HIV pol 589-597 | 1.6 % of HIV pol 589-597 at 100 µM | – |
| GLAFVPLQI [CD37-H1] | 27 % of HIV pol 589-597 at 100 µM | 153 % of HIV pol 589-597 at 100 µM | 2 % of HIV pol 589-597 at 100 µM | 7.35 | 17.5 ratio to HIV pol 589-597 | 0 % of HIV pol 589-597 at 100 µM | – |
| LLVGILHLV [CD19-B1] | 40 % of HIV pol 589-597 at 100 µM | 93 % of HIV pol 589-597 at 100 µM | – | 3.7 | 0.7 ratio to HIV pol 589-597 | 8 % of HIV pol 589-597 at 100 µM | – |
| SLVGILHII [CD19-B11] | 30.5 % of HIV pol 589-597 at 100 µM | 108 % of HIV pol 589-597 at 100 µM | 0 % of HIV pol 589-597 at 100 µM | 5.97 | 0.8 ratio to HIV pol 589-597 | 5.2 % of HIV pol 589-597 at 100 µM | – |
| TLLFLTPML [CD19-B2] | 114 % of HIV pol 589-597 at 100 µM | – | 12 % of HIV pol 589-597 at 100 µM | 0.38 | 1 ratio to HIV pol 589-597 | 41 % of HIV pol 589-597 at 100 µM | – |
| YLAYLIFEL [CD19-B6] | 52.5 % of HIV pol 589-597 at 100 µM | – | 0 % of HIV pol 589-597 at 100 µM | 3.76 | 0.4 ratio to HIV pol 589-597 | 5.4 % of HIV pol 589-597 at 100 µM | – |
| TLAYLIFCL [CD19-H6] | 39.6 % of HIV pol 589-597 at 100 µM | – | 0 % of HIV pol 589-597 at 100 µM | 4.98 | 0.5 ratio to HIV pol 589-597 | 4.1 % of HIV pol 589-597 at 100 µM | – |
| LQMGGFYLL [CD19-B7] | 4.5 % of HIV pol 589-597 at 100 µM | 31.8 % of HIV pol 589-597 at 100 µM | 6 % of HIV pol 589-597 at 100 µM | 49.6 | 6.8 ratio to HIV pol 589-597 | 4.8 % of HIV pol 589-597 at 100 µM | – |
| LMFGAPALV [TNFRSF13C-B1] | 37 % of HIV pol 589-597 at 100 µM | 90 % of HIV pol 589-597 at 100 µM | 1 % of HIV pol 589-597 at 100 µM | 4.35 | 1.1 ratio to HIV pol 589-597 | 7 % of HIV pol 589-597 at 100 µM | – |
| LLFGAPALL (also called TNFRSF13-H1) [TNFRSF13C-H1] | 17 % of HIV pol 589-597 at 100 µM | 92 % of HIV pol 589-597 at 100 µM | 0 % of HIV pol 589-597 at 100 µM | 11.8 | 3 ratio to HIV pol 589-597 | 2 % of HIV pol 589-597 at 100 µM | – |
| ILPGLLFGL [TNFRSF13C-B31] | 71.9 % of HIV pol 589-597 at 100 µM | 104 % of HIV pol 589-597 at 100 µM | 0 % of HIV pol 589-597 at 100 µM | 1.6 | 0.4 ratio to HIV pol 589-597 | 1.5 % of HIV pol 589-597 at 100 µM | – |
| FMPGLLFGA [TNFRSF13C-B33] | 15.5 % of HIV pol 589-597 at 100 µM | 99.6 % of HIV pol 589-597 at 100 µM | 0 % of HIV pol 589-597 at 100 µM | 13.2 | 3.5 ratio to HIV pol 589-597 | 1.3 % of HIV pol 589-597 at 100 µM | – |
| YILGGLLMV [MS4A1-B12] | 7.6 % of HIV pol 589-597 at 100 µM | 42 % of HIV pol 589-597 at 100 µM | 1.2 % of HIV pol 589-597 at 100 µM | 31.2 | 3.5 ratio to HIV pol 589-597 | 1.1 % of HIV pol 589-597 at 100 µM | – |
| ILIPAGIYL [MS4A1-B3] | 87.8 % of HIV pol 589-597 at 100 µM | 88.8 % of HIV pol 589-597 at 100 µM | 1.9 % of HIV pol 589-597 at 100 µM | 0.7 | 0.1 ratio to HIV pol 589-597 | 17.8 % of HIV pol 589-597 at 100 µM | – |
| LMIPAGIYA [MS4A1-H3] | 35.7 % of HIV pol 589-597 at 100 µM | 92.6 % of HIV pol 589-597 at 100 µM | 0 % of HIV pol 589-597 at 100 µM | 4.83 | 0.5 ratio to HIV pol 589-597 | 0.9 % of HIV pol 589-597 at 100 µM | – |
| AMNSLSLYI [MS4A1-B4] | 13.1 % of HIV pol 589-597 at 100 µM | 115 % of HIV pol 589-597 at 100 µM | 0.5 % of HIV pol 589-597 at 100 µM | 12.3 | 2.1 ratio to HIV pol 589-597 | 1.9 % of HIV pol 589-597 at 100 µM | – |
| ILNSLSLLL [MS4A1-B41] | – | – | – | 2.45 | 0.3 ratio to HIV pol 589-597 | – | – |
| LIFEHPERV [CD22-B12] | – | – | – | – | – | – | binds |
| SLVGILHLQ [CD19-H1] | 1 % of HIV pol 589-597 at 100 µM | 0 % of HIV pol 589-597 at 100 µM | 1 % of HIV pol 589-597 at 100 µM | – | – | 0 % of HIV pol 589-597 at 100 µM | – |
| FLLFLTPME [CD19-H2] | 7 % of HIV pol 589-597 at 100 µM | 7 % of HIV pol 589-597 at 100 µM | – | – | – | 3 % of HIV pol 589-597 at 100 µM | – |
| PLPGLLFGA [TNFRSF13C-H3] | 0 % of HIV pol 589-597 at 100 µM | 8.4 % of HIV pol 589-597 at 100 µM | 0 % of HIV pol 589-597 at 100 µM | – | – | 0 % of HIV pol 589-597 at 100 µM | – |
| IALGGLLMI [MS4A1-H1] | 1.9 % of HIV pol 589-597 at 100 µM | – | 0 % of HIV pol 589-597 at 100 µM | – | – | 0.7 % of HIV pol 589-597 at 100 µM | – |
| IMNSLSLFA [MS4A1-H4] | 2.6 % of HIV pol 589-597 at 100 µM | 13.4 % of HIV pol 589-597 at 100 µM | 0 % of HIV pol 589-597 at 100 µM | – | – | 0.3 % of HIV pol 589-597 at 100 µM | – |
